# Measured values: the supplement of paper PMC10724198
# ± gives the standard deviation of the averaged measurements.
# System: Saccharomyces cerevisiae
# Assay: protein stability index of tFT-peptide fusion (C-terminal peptide) (PSI (0-1 scale)); higher = more stable (slower turnover)
# Details: genetic background: wild type; temperature: 30 C
# Method: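 Multiplexed protein stability (MPS) profiling in S. cerevisiae. Random 12-aa peptides (tFT-X12 library) are fused to the C-terminus of a sfGFP-mCherry tandem fluorescent timer, after mCherry and a GGGS linker. Cells are FACS-sorted into 8 mCherry/sfGFP bins and deep-sequenced. The protein stability index (PSI) is the read-weighted bin average, scaled from 0 (unstable) to 1 (stable). Only peptides with >10 reads are reported; cells were grown at 30 °C in SC-His with glucose.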
# 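Note: PSI is a weighted mean of sequencing reads over stability bins, variants kept only with over 10 reads, mCherry proximal and sfGFP distal, peptide attached via GGGS linker.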
row,Sequence,protein stability index
1,ERVMMKNDSIVT,0.623 ± 0.1
2,ESKATIRTRARN,0.74 ± 0.028
3,ESKCADNKMKRK,0.652 ± 0.022
4,ESQKKEKTKPKN,0.655 ± 0.023
5,ESRWRSPCFIIW,0.626 ± 0.11
6,ESSKVRNLELLK,0.669 ± 0.017
7,ESTKKQSTAPKN,0.714 ± 0.043
8,ESVGLGDRRVCS,0.65 ± 0.024
9,ETEKHGIRRRQG,0.644 ± 0.027
10,ETKKKTNKRAEK,0.689 ± 0.053
11,ETRKINELRAKK,0.642 ± 0.087
12,ETRKKKLTNSRT,0.622 ± 0.071
13,EVAFGLLPPHDS,0.701 ± 0.019
14,EVESYVVSGDRW,0.608 ± 0.042
15,EVFGNVREAHCV,0.707 ± 0.019
16,EVVEDGAEEVGR,0.685 ± 0.053
17,EVWSYCPAFFVD,0.736 ± 0.016
18,EWALAESGYDEP,0.746 ± 0.05
19,EWCQVGGRGFLG,0.74 ± 0.021
20,EWEKKKRGNTRK,0.642 ± 0.022
21,EWRDSCLLKWWV,0.725 ± 0.015
22,EWRWCESKIITV,0.625 ± 0.028
23,EWVLRTLVDTNW,0.728 ± 0.0075
24,EWVSGWIVRWWR,0.679 ± 0.076
25,EYAVDAERLRTT,0.72 ± 0.053

row,Sequence,protein stability index
1,EYDIKRRKRRNT,0.67 ± 0.23
2,EYISNLLSSPEP,0.633 ± 0.013
3,EYRCVAQHSLLH,0.743 ± 0.049
4,EYRRADYCLGVG,0.547 ± 0.011
5,FAAKASVLRMRR,0.605 ± 0.029
6,FAFPQASHPVRI,0.664 ± 0.063
7,FAGGAVNIGVVG,0.71 ± 0.015
8,FAGGPSIAAHVL,0.712 ± 0.2
9,FAIFSGMSFGVY,0.693 ± 0.05
10,FALLVSDISGRI,0.811 ± 0.03
11,FAPCSPKAVFCS,0.589 ± 0.037
12,FAPSAGGSLAGP,0.698 ± 0.033
13,FARPQCLPVPLP,0.6555 ± 0.001
14,FARQSMLSKLQI,0.587 ± 0.033
15,FASTEDDKKNTT,0.6746 ± 0.0029
16,FAWSPPACFIPS,0.654 ± 0.011
17,FAWYSFYSPPPR,0.667 ± 0.0048
18,FCGFLVLGSFPV,0.664 ± 0.072
19,FCLIHCIVPFPV,0.507 ± 0.093
20,FCNPHVGGIRRA,0.684 ± 0.05
21,FCPVGVFCGIFG,0.644 ± 0.029
22,FCRLSHYLSASP,0.687 ± 0.17
23,FCSVTLPSRSCV,0.727 ± 0.098
24,FDCMVRVRTTVV,0.544 ± 0.027
25,FDLVFRPVLGLL,0.6246 ± 0.0052

row,Sequence,protein stability index
1,FECDYLLCGAGL,0.744 ± 0.029
2,FELTSATWRGCF,0.685 ± 0.094
3,FEVRLRCLGYSG,0.718 ± 0.015
4,FFDPPPSLSALI,0.7724 ± 0.0037
5,FFEVFDNYRSLV,0.684 ± 0.051
6,FFFFPFLPFSWF,0.507 ± 0.0084
7,FFITFGFSSGSR,0.675 ± 0.068
8,FFPSPHVPPPPP,0.617 ± 0.018
9,FFPSPPPVLSPP,0.747 ± 0.021
10,FFSGYVVSTRHM,0.702 ± 0.089
11,FFSMVFVFGFRA,0.5 ± 0.015
12,FFSRFCYGFGRM,0.723 ± 0.066
13,FFSSALILSLRL,0.533 ± 0.023
14,FFVGAGGTEGLG,0.705 ± 0.0088
15,FFVVGEEFCVSV,0.649 ± 0.054
16,FGASSGSARVCG,0.682 ± 0.083
17,FGEAFYVGCVHV,0.698 ± 0.037
18,FGFLDRVLLFRV,0.547 ± 0.013
19,FGFSSGRVRQRV,0.754 ± 0.011
20,FGGSGAYRRVGE,0.7 ± 0.072
21,FGGVGRGGLLWC,0.7749 ± 0.0041
22,FGIGWNDRLVEC,0.669 ± 0.057
23,FGSCVIFAAHWF,0.6467 ± 0.0025
24,FGSVGSIRTPDG,0.707 ± 0.0086
25,FGTKSLPSLLAM,0.583 ± 0.034

row,Sequence,protein stability index
1,FGVRPVSVPLCG,0.592 ± 0.047
2,FGVSFFSGVNGV,0.681 ± 0.011
3,FGWKTGGRGTVM,0.742 ± 0.04
4,FHFFSFLSSVGF,0.6434 ± 0.0062
5,FHFPHPFLPFPS,0.666 ± 0.12
6,FHPRLGVRLGIT,0.632 ± 0.046
7,FHPRPPLLPSLP,0.6435 ± 0.003
8,FHRESAEPSLWS,0.697 ± 0.11
9,FHRHILCSDPRL,0.709 ± 0.022
10,FHRSNFLPFFHL,0.593 ± 0.092
11,FHYALRLLDFNN,0.716 ± 0.12
12,FIFHFLMFPGPL,0.56 ± 0.013
13,FIGLGPGVGGVW,0.704 ± 0.028
14,FIIIKTKKMTMK,0.7 ± 0.064
15,FIKTSDAVIGEK,0.563 ± 0.017
16,FISVFYMLFPYR,0.626 ± 0.013
17,FIVPLFPVFFSS,0.621 ± 0.05
18,FLAWPRSDYPGF,0.732 ± 0.022
19,FLCLVASLFRFA,0.585 ± 0.043
20,FLCSRYRGYMPT,0.632 ± 0.086
21,FLFCWGCCRLFW,0.581 ± 0.1
22,FLFGILFTSRAV,0.5311 ± 0.0015
23,FLFTLPPPPRCH,0.709 ± 0.088
24,FLGLDLVFRFFV,0.554 ± 0.066
25,FLGQPLSFSHVL,0.692 ± 0.035

row,Sequence,protein stability index
1,FLIRSSQSFELE,0.715 ± 0.035
2,FLKGTTSQQDYT,0.7022 ± 0.0056
3,FLLFASPPPRPL,0.715 ± 0.017
4,FLLPPPFLPLPL,0.691 ± 0.028
5,FLLSARGVIVFW,0.544 ± 0.018
6,FLLSLYSVPFVL,0.63984 ± 0.00021
7,FLNRDGFETLFC,0.686 ± 0.022
8,FLPPPPRRPFTR,0.6282 ± 0.0057
9,FLPRGPLPPSPF,0.595 ± 0.026
10,FLRCALRLRFGF,0.671 ± 0.038
11,FLRGRTPLTAGD,0.582 ± 0.022
12,FLSEPAKRILYL,0.667 ± 0.018
13,FLSFFVLGVPGG,0.707 ± 0.039
14,FLSHISVPRGKT,0.773 ± 0.034
15,FLVREGIGKRGC,0.641 ± 0.072
16,FLVRMIYYRRHP,0.616 ± 0.028
17,FMSGIVDLQRPL,0.691 ± 0.034
18,FMVFCFPFTGVL,0.562 ± 0.022
19,FMVVKWSPCAWC,0.539 ± 0.026
20,FNFSSGLTGSWL,0.763 ± 0.024
21,FPASPQPPPPLP,0.627 ± 0.024
22,FPDGLGSVPRSP,0.68389 ± 0.0004
23,FPFTLSPTLFHS,0.714 ± 0.08
24,FPLFRSLLLFAP,0.5331 ± 0.00081
25,FPLLCAAPLLSS,0.594 ± 0.0012

row,Sequence,protein stability index
1,FPLYKQKSGITY,0.651 ± 0.0081
2,FPPARPDFPPST,0.735 ± 0.025
3,FPPIHIHSPCYP,0.765 ± 0.021
4,FPPPPLYFPFPL,0.693 ± 0.017
5,FPQSDFFLLILS,0.549 ± 0.013
6,FPRPACRSTHIL,0.671 ± 0.065
7,FPRPPSVLACRP,0.645 ± 0.088
8,FPRVTGTKPPPA,0.7201 ± 0.0023
9,FPSPPLPSSSTS,0.708 ± 0.051
10,FQAERTGVTRAR,0.666 ± 0.0078
11,FQAVSPRFLVLP,0.64 ± 0.046
12,FQGSDCLYFGLL,0.741 ± 0.043
13,FQHFGAPPTWHE,0.742 ± 0.093
14,FQVCAPLPISRS,0.717 ± 0.029
15,FRAPVLCPSYYS,0.7064 ± 0.0049
16,FRDPPSILTSDT,0.621 ± 0.017
17,FRGAGAEGSGWG,0.634 ± 0.0066
18,FRLILGCPFACL,0.576 ± 0.034
19,FRLKRFSGTGYG,0.698 ± 0.035
20,FRLPAIRRGHDS,0.69 ± 0.069
21,FRRILGTIKLGR,0.69 ± 0.023
22,FRTVRSMVGRRP,0.721 ± 0.077
23,FRWGGPSGEVRE,0.643 ± 0.1
24,FSACSGSHVEVW,0.695 ± 0.037
25,FSFFVESFPASF,0.668 ± 0.036

row,Sequence,protein stability index
1,FSFIPIRRYPVM,0.733 ± 0.15
2,FSGFRFFLLWPW,0.678 ± 0.085
3,FSHLRASFADAA,0.687 ± 0.045
4,FSIFFFSFFSCF,0.563 ± 0.039
5,FSILYLLPPGPL,0.663 ± 0.092
6,FSKTLCGCQITC,0.658 ± 0.037
7,FSLCFSSFSLFP,0.676 ± 0.016
8,FSLPFLFCRPLS,0.6279 ± 0.0042
9,FSLPSRAPLPRF,0.735 ± 0.13
10,FSLSLACPPPHS,0.679 ± 0.19
11,FSLSRWFDEIAL,0.6438 ± 0.00075
12,FSLWPVRFVVDR,0.679 ± 0.041
13,FSNLVSAHFGLL,0.666 ± 0.042
14,FSPTPSRLSCDR,0.728 ± 0.027
15,FSPVSSFTLTLS,0.701 ± 0.11
16,FSRFWVSGGVVC,0.599 ± 0.0082
17,FSSPSFRSSLLL,0.679 ± 0.015
18,FSSTSAPPRSAP,0.621 ± 0.0078
19,FTARAGRLQSVF,0.627 ± 0.0097
20,FTCSAIIHVCGL,0.571 ± 0.035
21,FTISALSSTPRP,0.669 ± 0.042
22,FTLYLASVHFTR,0.56 ± 0.044
23,FTVRSPSCISAE,0.631 ± 0.017
24,FVALWVGCCWLG,0.542 ± 0.011
25,FVAPPLCMPLSR,0.704 ± 0.04

row,Sequence,protein stability index
1,FVCRRDIMSGIF,0.6565 ± 0.0052
2,FVDWGLFAFGCL,0.796 ± 0.062
3,FVFGVCGGGGIG,0.671 ± 0.11
4,FVGAYGRLCCMS,0.69 ± 0.031
5,FVGGNEGSYWAS,0.751 ± 0.035
6,FVGRWSSRSRGH,0.768 ± 0.022
7,FVILTPFYLTFH,0.51 ± 0.033
8,FVIWGCGVRSWC,0.618 ± 0.033
9,FVKRFSNGGVKT,0.775 ± 0.027
10,FVLATGVLLQQG,0.623 ± 0.024
11,FVLWFTSSGCSN,0.7598 ± 0.0039
12,FVPMDFILKFSR,0.699 ± 0.033
13,FVPPPVVPPFPL,0.716 ± 0.017
14,FVQEQGAKNNRH,0.746 ± 0.015
15,FVRAVLRLSSVF,0.645 ± 0.052
16,FVRCLFSSGCFF,0.728 ± 0.013
17,FVRGGWAVMLGG,0.58 ± 0.049
18,FVSSSVFFVFSF,0.627 ± 0.058
19,FVSWNLPLAFAF,0.499 ± 0.017
20,FVVVVVGGGWGG,0.516 ± 0.0068
21,FVWRVGGVRRGV,0.758 ± 0.09
